Measurements: doi:10.1101/2021.10.11.463801 (2021)

Target: T1, JIP4[1-103] (human, UniProt O60271-1 1-103)
T1 chain: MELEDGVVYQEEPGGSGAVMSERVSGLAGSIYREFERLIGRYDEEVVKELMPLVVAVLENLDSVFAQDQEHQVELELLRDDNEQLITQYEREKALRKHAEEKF
Test: ITC

Kd: 4.5 µM
B1: DLIC1[388-523] (domain or fragment)
chain: PTAAGRPVDASPRVPGGSPRTPNRSVSSNVASVSPIPAGSKKIDPNMKAGATSEGVLANFFNSLLSKKTGSPGGPGVSGGSPAGGAGGGSSGLPPSTKKSGQKPVLDVHAELDRITRKPVTVSPTTPTSPTEGEAS
